Data reported in patent publication US7238711.
Each block holds one substance with its values, some of them ahead of it.

How the values were obtained:
[1] = molecular target: chemokine receptors on the surface of Jurkat cells; test: biotinylated peptide on cells, streptavidin-peroxidase
[2] = molecular target: chemokine receptors on the surface of Jurkat cells; test: biotinylated peptide at 100 µM on 10^6 Jurkat cells, streptavidin-peroxidase, TMB
[3] = molecular target: chemokine receptors on THP-1 cells; test: biotinylated peptide at 100 µM on 4×10^5 THP-1 cells, streptavidin-peroxidase, TMB
[4] = molecular target: chemokine receptors on THP-1 cells; test: biotinylated peptide on THP-1 cells, streptavidin-peroxidase, Scatchard; with and without 100 µM unlabeled peptide 3 (printed as affinity constant)
CXCR4 (human) = CXCR4 (human) (UniProt P61073); test: cell-based or functional assay
Sequence of CXCR4 (human) (P61073 whole entry): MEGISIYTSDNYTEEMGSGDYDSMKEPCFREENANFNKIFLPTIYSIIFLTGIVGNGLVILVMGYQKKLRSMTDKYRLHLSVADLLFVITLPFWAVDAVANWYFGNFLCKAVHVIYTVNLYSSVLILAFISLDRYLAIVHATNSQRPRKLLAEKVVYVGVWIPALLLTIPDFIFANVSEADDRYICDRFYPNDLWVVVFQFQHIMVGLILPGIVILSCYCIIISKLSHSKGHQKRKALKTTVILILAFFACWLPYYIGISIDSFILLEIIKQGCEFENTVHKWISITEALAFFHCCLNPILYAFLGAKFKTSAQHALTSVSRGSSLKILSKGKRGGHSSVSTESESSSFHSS

Substance: gp120:V3(IIIb) (peptide)
fold specific binding against THP-1 cells [1]: 5 fold
ΔA450 nm, alone [2]: 0.878 ΔA450 nm
ΔA450 nm, specific binding [2]: 0.689 ΔA450 nm
ΔA450 nm, alone [3]: 0.268 ΔA450 nm
ΔA450 nm, specific binding [3]: 0.137 ΔA450 nm

Kd [4]: 250 nM
Substance: N-terminal biotin-labeled peptide 2(1-15)[MCP-1]

percentage inhibition of SDF1α induced THP-1 migration at 100 µM (CXCR4 (human)): 87%
Substance: KLK (peptide)

Substance: gp120:V3(BaL) (peptide)
ΔA450 nm, alone [2]: 0.167 ΔA450 nm
ΔA450 nm, specific binding [2]: < 0 ΔA450 nm
ΔA450 nm, alone [3]: 0.642 ΔA450 nm
ΔA450 nm, specific binding [3]: 0.535 ΔA450 nm
